Source: patent publication US20210206877A1 (Genentech, published 2021)

target: BACE1 endogenous to primary cortical neurons from E16.5 CD1 mice (mouse, UniProt P56818 46-501); test: cell-based or functional assay
Sequence (P56818 46-501): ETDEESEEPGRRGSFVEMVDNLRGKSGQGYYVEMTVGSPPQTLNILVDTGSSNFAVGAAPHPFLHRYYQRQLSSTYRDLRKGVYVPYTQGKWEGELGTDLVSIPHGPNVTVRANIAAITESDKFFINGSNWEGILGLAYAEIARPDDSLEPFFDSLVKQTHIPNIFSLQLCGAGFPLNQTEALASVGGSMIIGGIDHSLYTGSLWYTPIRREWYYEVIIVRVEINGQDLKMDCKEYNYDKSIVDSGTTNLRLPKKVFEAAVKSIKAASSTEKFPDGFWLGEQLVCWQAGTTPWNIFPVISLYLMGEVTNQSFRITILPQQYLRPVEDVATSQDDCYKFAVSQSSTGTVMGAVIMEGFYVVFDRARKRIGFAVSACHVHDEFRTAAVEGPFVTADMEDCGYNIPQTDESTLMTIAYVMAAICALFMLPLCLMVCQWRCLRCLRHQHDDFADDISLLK

max % inhibition, Abeta x-40 in mouse cortical neurons [%] | Binder
82 | 6273 (antibody, V domains shown) VH: QVQLVQSGAEVKKPGSSVKVSCKASGGTFSGYGISWVRQAPGQGLEWMGNIIPGFGTANYAQKFQGRVTITADESTSTAYMELSSLRSEDTAVYYCARSGGTKYGMLDVWGQGTMVTVSS VL: EIVMTQSPATLSVSPGERATLSCRASQSVSSNIAWYQQKPGQAPRLLIYGASTRATGIPARFSGSGSGTEFTLTISSLQSEDFAVYYCQQLLLWPPRTFGGGTKVEIK
81 | 6276 (antibody, V domains shown) VH: QVQLVQSGAEVKKPGSSVKVSCKASGGTFRGYAISWVRQAPGQGLEWMGNIIPGLSTANYAQKFQGRVTITADESTSTAYMELSSLRSEDTAVYYCARSGGTKYGMLDVWGQGTMVTVSS VL: EIVMTQSPATLSVSPGERATLSCRASQSVSSNLAWYQQKPGQAPRLLIYGASTRATGIPARFSGSGSGTEFTLTISSLQSEDFAVYYCQQLILWPPRTFGGGTKVEIK
82 | 6272 (antibody, V domains shown) VH: QVQLVQSGAEVKKPGSSVKVSCKASGGTFSGYGISWVRQAPGQGLEWMGNIIPGFGTANYAQKFQGRVTITADESTSTAYMELSSLRSEDTAVYYCARSGGTKYGMLDVWGQGTMVTVSS VL: EIVMTQSPATLSVSPGERATLSCRASQSVSSNLAWYQQKPGQAPRLLIYGASTRATGIPARFSGSGSGTEFTLTISSLQSEDFAVYYCQQLFLWPPRTFGGGTKVEIK
85 | 6270 (antibody, V domains shown) VH: QVQLVQSGAEVKKPGSSVKVSCKASGGTFSGYGISWVRQAPGQGLEWMGNIIPGFGTANYAQKFQGRVTITADESTSTAYMELSSLRSEDTAVYYCARSGGTKYGMLDVWGQGTMVTVSS VL: EIVMTQSPATLSVSPGERATLSCRASQSVSSNLAWYQQKPGQAPRLLIYGASTRATGIPARFSGSGSGTEFTLTISSLQSEDFAVYYCQQLLLWPPRTFGGGTKVEIK
71 | 6279 (antibody, V domains shown) VH: QVQLVQSGAEVKKPGSSVKVSCKASGGTFRGYAISWVRQAPGQGLEWMGNIIPGFGTANYAQKFQGRVTITADESTSTAYMELSSLRSEDTAVYYCARSGGTKYGMLDVWGQGTMVTVSS VL: EIVMTQSPATLSVSPGERATLSCRASQSVSSNLAWYQQKPGQAPRLLIYGASTRATGIPARFSGSGSGTEFTLTISSLQSEDFAVYYCQQLLLWPPRTFGGGTKVEIK
65 | 6280 (antibody, V domains shown) VH: QLQLQESGPGLVKPSETLSLTCTVSGGSTSSSSYYWGWIRQPPGKGLEWIGSIYRSGSTYYNPSFKSRVTISVDTSKNQFSLKLSSVTAADTAVYYCARVGHGISYFDLWGRGTLVTVSS VL: EIVLTQSPATLSLSPGERATLSCRASQSVSSYLAWYQQKPGQAPRLLIYDASNRATGIPARFSGSGSGTDFTLTISSLEPEDFAVYYCQQSLTWPPRTFGGGTKVEIK
83 | 6271 (antibody, V domains shown) VH: QVQLVQSGAEVKKPGSSVKVSCKASGGTISGYGISWVRQAPGQGLEWMGNIIPGFGTANYAQKFQGRVTITADESTSTAYMELSSLRSEDTAVYYCARSGGTKYGMLDVWGQGTMVTVSS VL: EIVMTQSPATLSVSPGERATLSCRASQSVSSNLAWYQQKPGQAPRLLIYGASTRATGIPARFSGSGSGTEFTLTISSLQSEDFAVYYCQQLILWPPRTFGGGTKVEIK
85 | 6274 (antibody, V domains shown) VH: QVQLVQSGAEVKKPGSSVKVSCKASGGTFSGYGISWVRQAPGQGLEWMGNIIPGFGTANYAQKFQGRVTITADESTSTAYMELSSLRSEDTAVYYCARSGGTKYGMLDVWGQGTMVTVSS VL: EIVMTQSPATLSVSPGERATLSCRASQSVSSHLAWYQQKPGQAPRLLIYGASTRATGIPARFSGSGSGTEFTLTISSLQSEDFAVYYCQQLILWPPRTFGGGTKVEIK
71 | 6275 (antibody, V domains shown) VH: QVQLVQSGAEVKKPGSSVKVSCKASGGTFRGYAISWVRQAPGQGLEWMGNIIPGFGTANYAQKFQGRVTITADESTSTAYMELSSLRSEDTAVYYCARSGGTKYGMLDVWGQGTMVTVSS VL: EIVMTQSPATLSVSPGERATLSCRASQSVSSNLAWYQQKPGQAPRLLIYGASTRATGIPARFSGSGSGTEFTLTISSLQSEDFAVYYCQQLFLWPPRTFGGGTKVEIK

The next lines start with the binder.

Binder | max % inhibition, Abeta x-40 in mouse cortical neurons [%]
5930 (antibody, V domains shown) VH: QVQLVQSGAEVKKPGSSVKVSCKASGGTLSGYAISWVRQAPGQGLEWMGNIIPGFGTANYAQKSQGRVTITADESTSTAYMELSSLRSEDTAVYYCARSGGTRYGMLDVWGQGTMVTVSS VL: EIVMTQSPATLSVSPGERATLSCRASQSVGSNLAWYQQKPGQAPRLLIYGASTRATGIPARFSGSGSGTEFTLTISSLQSEDFAVYYCQQLYTWPPRTFGGGTKVEIK | 74
5984 (antibody, V domains shown) VH: QLQLQESGPGLVKPSETLSLTCTVSGGSISSSSYYWGWIRQPPGKGLEWIGNIYYSGSTYYNPSLKGRVTISVDTSKNQFSLKLSSVTAADTAVYYCARLGHGYNYFDLWGRGTLVTVSS VL: EIVLTQSPATLSLSPGERATLSCRASQSVSSYLAWFQQKPGQAPRLLIYDASNRATGIPARFSGSGSGTDFTLTISSLEPEDFAVYYCQQVYVWPPRTFGGGTKVEIK | 70
5990 (antibody, V domains shown) VH: QLQLQESGPGLVKPSETLSLTCTVSGGSISWSSYYWSWIRQPPGKGLEWIGSIYRSGRTYYNPSLKSRVTISVDTSKNQFSLKLSSVTAADTAVYYCARVGHGINYFDLWGRGTLVTVSS VL: EIVLTQSPATLSLSPGERATLSCRASRSVNSYLAWYQQKPGQAPRLLIYDASKRATGIPARFSGSGSGTDFTLTISSLEPEDFAVYYCQQVYTWPPRTFGGGTKVEIK | 61
5988 (antibody, V domains shown) VH: QVQLVQSGAEVKKPGSSVKVSCKASGGTLSGYAISWVRQAPGQGLEWMGNIIPGFGTANYAQKSQGRVTITADESTSTAYMELSSLRSEDTAVYYCARSGGTRYGMLDVWGQGTMVTVSS VL: GIVMTQSPATLSVSPGERATLSCRASQSVGSNLAWYQQKPGQAPRLLIYGASTRATGIPARFSGSGSGTEFTLTISSLQSEDFAVYYCQQLYTWPPRTFGGGTKVEIK | 75
5933 (antibody, V domains shown) VH: QLQLQESGPGLVKPSETLSLTCTVSGGSISRGSYYWGWIRQPPGKGLEWIGMIYYSGSTWYNPSLKSRVTISVDTSKNQFSLKLSSVTAADTAVYYCARVGHGVSYFDLWGRGTLVTVSS VL: EIVLTQSPATLSLSPGERATLSCRASQSVSSYLAWYQQKPGQAPRLLIYGASKRATGIPARFSGSGSGTDFTLTISSLEPEDFAVYYCQQVYTWPPRTFGGGTKVEIK | 67
5931 (antibody, V domains shown) VH: QLQLQESGPGLVKPSETLSLTCTVSGGSISWSSYYWSWIRQPPGKGLEWIGSIYRSGRTYYNPSLKGRVTISVDTSKNQFSLKLSSVTAADTAVYYCARVGHGINYFDLWGRGTLVTVSS VL: EIVLTQSPATLSLSPGERATLSCRASQSVSSYLAWYQQKPGQAPRLLIYDASKRATGIPARFSGSGSGTDFTLTISSLEPEDFAVYYCQQVYTWPPRTFGGGTKVEIK | 69
5985 (antibody, V domains shown) VH: QLQLQESGPGLVKPSETLSLTCTVSGGSISSSSYYWGWIRQPPGKGLEWIGNIYYSGSTYYNPSLKSRVTISVDTSKNQFSLKLSSVTAADTAVYYCARLGHGYNYFDLWGRGTLVTVSS VL: EIVLTQSPATLSLSPGERATLSCRASQSVSSYLAWFQQKPGQAPRLLIYDASNRATGIPARFSGSGSGTDFTLTISSLEPEDFAVYYCQQVYVWPPRTFGGGTKVEIK | 73
5983 (antibody, V domains shown) VH: QLQLQESGPGLVKPSETLSLTCTVSGGSISSSSYYWGWIRQPPGKGLEWIGNIYYSGSTYYNPSLRSRVTISVDTSKNQFFLKLSSVTAADTAVYYCARLGHGYNYFDLWGRGTLVTVSS VL: EIVLTQSPATLSLSPGERATLSCRASQSVSSYLAWFQQKPGQAPRLLIYDASNRATGIPARFSGSGSGTDFTLTISSLEPEDFAVYYCQQVYVWPPRTFGGGTKVEIK | 72
5986 (antibody, V domains shown) VH: QLQLQESGPGLVKPSETLSLTCTVSGGSISSSSYYWGWIRQPPGKGLEWIGQIYYSGSTFYNPSLKSRVTISVDTSKNQFSLKLSSVTAADTAVYYCARLGHGYSYFDLWGRGTLVTVSS VL: EIVLTQSPATLSLSPGERATLSCRASQSVSSYLAWFQQKPGQAPRLLIYDASNRATGIPARFSGSGSGTDFTLTISSLEPEDFAVYYCQQVYVWPPRTFGGGTKVEIK | 67
5982 (antibody, V domains shown) VH: QLQLQESGPGLVKPSETLSLTCTVSGGSISSSSYYWGWIRQPPGKGLEWIGNIYYSGSTYYNPSLKSRVTISVDTSKNQFSLKLSSVTAADTAVYYCARLGHGYSYFDLWGRGTLVTVSS VL: EIVLTQSPATLSLSPGERATLSCRASQSVSSYLAWFQQKPGQAPRLLIYDASNRATGIPARFSGSGSGTDFTLTISSLEPEDFAVYYCQQVYVWPPRTFGGGTKVEIK | 71
5987 (antibody, V domains shown) VH: QVQLVQSGAEVKKPGSSVKVSCKASGGTLSGYAISWVRQAPGQGLEWMGNIIPGFGTANYAQKSQGRVTITADESTSTAYMELSSLRSEDTAVYYCARSGGTRYGMLDVWGQGTMVTVSS VL: EIVMTQSPATLSVSPGERATLSCRASQSVSSNLAWYQQKPGQAPRLLIYGASTRATGIPARFSGSGSGTEFTLTISSLQSEDFAVYYCQQLFLWPPRTFGGGTKVEIK | 69
5932 (antibody, V domains shown) VH: QLQLQESGPGLVKPSETLSLTCTVSGGSISRGSYYWGWIRQPPGKGLEWIGMIYYSGSTWYNPSLKSRVTISVDTSKNQFSLKLSSVTAADTAVYYCARVGHGISYFDLWGRGTLVTVSS VL: EIVLTQSPATLSLSPGERATLSCRASQSVSSYLAWYQQKPGQAPRLLIYDASKRATGIPARFSGSGSGTDFTLTISSLEPEDFAVYYCQQVYTWPPRTFGGGTKVEIK | 57
